Experimental data from patent publication US7229788B1, “Protease susceptibility II” (The University of Sydney, priority 1998, dated 2007).

B1: GST-SHEL: fusion of glutathione S-transferase (GST) with SHEL (protein)
chain: GGVPGAIPGGVPGGVFYPGAGLGALGGGALGPGGKPLKPVPGGLAGAGLGAGLGAFPAVTFPGALVPGGVADAAAAYKAAKAGAGLGGVPGVGGLGVSAGAVVPQPGAGVKPGKVPGVGLPGVYPGGVLPGARFPGVGVLPGVPTGAGVKPKAPGVGGAFAGIPGVGPFGGPQPGVPLGYPIKAPKLPGGYGLPYTTGKLPYGYGPGGVAGAAGKAGYPTGTGVGPQAAAAAAAKAAAKFGAGAAGVLPGVGGAGVPGVPGAIPGIGGIAGVGTPAAAAAAAAAAKAAKYGAAAGLVPGGPGFGPGVVGVPGAGVPGVGVPGAGIPVVPGAGIPGAAVPGVVSPEAAAKAAAKAAKYGARPGVGVGGIPTYGVGAGGFPGFGVGVGGIPGVAGVPSVGGVPGVGGVPGVGISPEAQAAAAAKAAKYGVGTPAAAAAKAAAKAAQFGLVPGVGVAPGVGVAPGVGVAPGVGLAPGVGVAPGVGVAPGVGVAPGIGPGGVAAAAKSAAKVAAKAQLRAAAGLGAGIPGLGVGVGVPGLGVGAGVPGLGVGAGVPGFGAGADEGVRRSLSPELREGDPSSSQHLPSTPSSPRVPGALAAAKAAKYGAAVPGVLGGLGALGGVGIPGGVVGAGPAAAAAAAKAAAKAAQFGLVGAAGLGGLGVGGLGVPGVGGLGGIPPAAAAKAAKYGAAGLGGVLGGAGQFPLGGVAARPGFGLSPIFPGGACLGKACGRKRK
modifications: left off: a dimerising Fc or GST
B2: SHEL: recombinant human tropoelastin splice form, amino acid sequence SEQ ID NO:4, obtained by the method of WO94/14958 (protein, listed as Homo sapiens)
chain: B1 chain
B3: SHELδ26A: derived from SHEL by removing sequence corresponding to exon 26A; SEQ ID NO:5; reduced tropoelastin derivative (protein, listed as Homo sapiens)
chain: GGVPGAIPGGVPGGVFYPGAGLGALGGGALGPGGKPLKPVPGGLAGAGLGAGLGAFPAVTFPGALVPGGVADAAAAYKAAKAGAGLGGVPGVGGLGVSAGAVVPQPGAGVKPGKVPGVGLPGVYPGGVLPGARFPGVGVLPGVPTGAGVKPKAPGVGGAFAGIPGVGPFGGPQPGVPLGYPIKAPKLPGGYGLPYTTGKLPYGYGPGGVAGAAGKAGYPTGTGVGPQAAAAAAAKAAAKFGAGAAGVLPGVGGAGVPGVPGAIPGIGGIAGVGTPAAAAAAAAAAKAAKYGAAAGLVPGGPGFGPGVVGVPGAGVPGVGVPGAGIPVVPGAGIPGAAVPGVVSPEAAAKAAAKAAKYGARPGVGVGGIPTYGVGAGGFPGFGVGVGGIPGVAGVPSVGGVPGVGGVPGVGISPEAQAAAAAKAAKYGVGTPAAAAAKAAAKAAQFGLVPGVGVAPGVGVAPGVGVAPGVGLAPGVGVAPGVGVAPGVGVAPGIGPGGVAAAAKSAAKVAAKAQLRAAAGLGAGIPGLGVGVGVPGLGVGAGVPGLGVGAGVPGFGAVPGALAAAKAAKYGAAVPGVLGGLGALGGVGIPGGVVGAGPAAAAAAAKAAAKAAQFGLVGAAGLGGLGVGGLGVPGVGGLGGIPPAAAAKAAKYGAAGLGGVLGGAGQFPLGGVAARPGFGLSPIFPGGACLGKACGRKRK

How the values were obtained:
Assay type in all cases: biochemical
human thrombin = biological target: T1, human thrombin (Homo sapiens, UniProt P00734); test: Thrombin digestion of SHEL, SDS-PAGE; conditions: for protection from degradation by thrombin in the coacervated state: coacervated at 37° C., 150 mM NaCl
T1 construct: purchased Sigma
Procedure: (§1) A range of enzyme concentrations was originally used to determine the optimal amount for subsequent experiments. Thrombin (0.01–1U), human plasma kallikrein (3×10^−4 to 3×10^−3U), human plasmin (7×10^−5 to 4×10^−7U), bovine trypsin (5×10^−4 to 4×10^−3U), and human leukocyte elastase (1.6×10^−4 to 3.2×10^−3U) were added to 10 μg SHEL or SHELδ26A in 50 mM sodium phosphate buffer pH 7.8 in a total volume of 20 μl. All reactions were performed at 37° C. for one hour. Gelatinase A and B were activated using 0.8 mM APMA at 37° C. for 30 minutes (gelatinase A) or 37° C. for 45 minutes (gelatinase B). Gelatinase A (4×10^−3−4×10^−2) and gelatinase B (2×10^−5−1×10^−4) was added to […] SHEL or SHELd26A in a total volume of […]. Gelatinase B reactions were performed in the presence of 0.75 mM APMA. The degradation profile was analysed by 8, 10 or 12% SDS-PAGE.
(§2) Both SHEL and SHELδ26A were used. Each reaction was analysed by 10% SDS-PAGE.
(§3) Extent of proteolysis was monitored by SDS-PAGE.
Cleavage of GST-SHEL bound to glutathione agarose was performed by washing and resuspending beads in 1× thrombin cleavage buffer (50 mM Tris-HCl pH8.0, 150 mM NaCl, 2.5 mM CaCl2) and adding human thrombin (Sigma) from 0.1 to 1% (w/v) thrombin:fusion protein at 25° C. for one hour (Smith and Johnston 1988). Soluble bacterial lysates used as substrate were incubated similarly with 1× thrombin cleavage buffer, added from a 10× stock. GST (26 kDa) was evident on beads by SDS-PAGE but SHEL could not be identified in the supernatant in numerous experiments. To determine whether thrombin was degrading SHEL, the entire cell lysate was subject to cleavage with increasing concentrations of thrombin. […] GST was clearly present. However, with 0.01U thrombin a band at approximately 64 kDa could be discerned which may represent SHEL although this was not nearly as intense as the GST band.

human plasma kallikrein = biological target: T2, human plasma kallikrein (Homo sapiens, UniProt P03952); test: Kallikrein digestion of SHEL, SDS-PAGE; conditions: for degradation by human plasma kallikrein: 50 mM sodium phosphate pH 7.8, 37° C.; for protection from degradation by kallikrein in the coacervated state: coacervated at 37° C., 150 mM NaCl
T2 construct: purchased Sigma
T2 sequence (P03952 20-638): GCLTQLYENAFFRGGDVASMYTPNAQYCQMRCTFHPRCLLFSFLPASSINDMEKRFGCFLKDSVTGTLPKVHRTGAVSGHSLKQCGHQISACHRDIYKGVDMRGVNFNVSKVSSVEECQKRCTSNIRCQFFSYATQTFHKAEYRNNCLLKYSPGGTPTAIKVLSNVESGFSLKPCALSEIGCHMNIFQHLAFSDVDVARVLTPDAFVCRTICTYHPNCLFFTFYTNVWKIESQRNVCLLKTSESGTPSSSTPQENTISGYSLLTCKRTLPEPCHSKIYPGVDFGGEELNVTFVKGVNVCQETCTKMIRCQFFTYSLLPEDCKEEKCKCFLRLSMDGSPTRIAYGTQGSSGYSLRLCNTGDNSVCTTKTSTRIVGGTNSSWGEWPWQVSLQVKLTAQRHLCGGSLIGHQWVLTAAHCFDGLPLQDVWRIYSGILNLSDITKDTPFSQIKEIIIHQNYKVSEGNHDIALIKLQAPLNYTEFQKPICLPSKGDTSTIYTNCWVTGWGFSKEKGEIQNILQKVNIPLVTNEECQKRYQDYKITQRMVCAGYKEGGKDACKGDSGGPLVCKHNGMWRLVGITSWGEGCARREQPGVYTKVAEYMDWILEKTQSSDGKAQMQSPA
Procedure: as §1, §2, §3

bovine trypsin = biological target: T3, bovine trypsin (Bos taurus, UniProt P00760); test: Trypsin digestion of SHEL, SDS-PAGE
T3 construct: purchased Boehringer-Mannheim
T3 sequence (P00760 24-246): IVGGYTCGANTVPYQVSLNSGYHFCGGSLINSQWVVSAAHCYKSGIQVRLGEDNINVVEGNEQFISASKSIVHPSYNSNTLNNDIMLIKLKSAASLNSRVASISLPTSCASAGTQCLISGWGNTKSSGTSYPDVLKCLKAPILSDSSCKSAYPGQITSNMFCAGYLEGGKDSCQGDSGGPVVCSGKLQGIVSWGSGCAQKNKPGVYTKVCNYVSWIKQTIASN
Procedure: as §1, §2, §3

human plasmin = biological target: T4, human plasmin (Homo sapiens, UniProt P00747); test: Plasmin digestion of SHEL, SDS-PAGE; conditions: for protection from degradation by plasmin in the coacervated state: coacervated at 37° C., 150 mM NaCl
T4 construct: purchased Sigma
T4 sequence (P00747 97-810): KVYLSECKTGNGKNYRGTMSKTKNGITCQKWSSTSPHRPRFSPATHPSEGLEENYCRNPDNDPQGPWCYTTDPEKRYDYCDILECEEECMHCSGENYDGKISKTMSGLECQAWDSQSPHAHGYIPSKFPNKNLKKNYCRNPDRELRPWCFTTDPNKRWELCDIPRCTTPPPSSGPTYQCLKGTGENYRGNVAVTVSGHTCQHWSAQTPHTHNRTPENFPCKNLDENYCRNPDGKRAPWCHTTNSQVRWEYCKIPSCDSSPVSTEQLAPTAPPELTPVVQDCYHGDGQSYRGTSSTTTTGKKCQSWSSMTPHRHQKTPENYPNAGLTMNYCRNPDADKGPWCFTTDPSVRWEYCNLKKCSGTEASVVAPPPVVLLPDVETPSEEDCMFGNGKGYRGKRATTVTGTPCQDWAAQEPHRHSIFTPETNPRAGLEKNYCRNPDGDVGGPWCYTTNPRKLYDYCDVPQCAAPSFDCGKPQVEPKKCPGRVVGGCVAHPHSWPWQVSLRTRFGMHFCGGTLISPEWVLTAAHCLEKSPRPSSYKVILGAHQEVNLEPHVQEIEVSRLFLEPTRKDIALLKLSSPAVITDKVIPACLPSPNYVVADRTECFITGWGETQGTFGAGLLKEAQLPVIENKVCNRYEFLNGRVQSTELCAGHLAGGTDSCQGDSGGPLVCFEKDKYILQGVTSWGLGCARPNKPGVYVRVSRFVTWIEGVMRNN
Procedure: as §1, §2, §3

[1] = biological target: T5, human leukocyte elastase (HLE) (Homo sapiens, UniProt P08246); test: HLE digestion of SHEL, SDS-PAGE
T5 construct: purchased Sigma
T5 sequence (P08246 30-267): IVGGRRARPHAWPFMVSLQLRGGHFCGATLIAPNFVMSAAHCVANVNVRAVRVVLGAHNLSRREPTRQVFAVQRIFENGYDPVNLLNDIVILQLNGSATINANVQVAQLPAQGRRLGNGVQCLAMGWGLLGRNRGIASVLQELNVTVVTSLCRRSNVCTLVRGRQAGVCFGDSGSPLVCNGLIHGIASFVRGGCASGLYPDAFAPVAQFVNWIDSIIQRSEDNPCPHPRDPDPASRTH
Procedure: as §1, §2, §3

[2] = biological target: T6, Gelatinase A (72 kDa gelatinase) (Homo sapiens, UniProt P08253); test: Gelatinase A digestion of SHEL; conditions: SDS-PAGE and zymogram analysis
T6 construct: purchased Boehringer Mannheim Roche Diagnostics
T6 sequence (P08253 110-660): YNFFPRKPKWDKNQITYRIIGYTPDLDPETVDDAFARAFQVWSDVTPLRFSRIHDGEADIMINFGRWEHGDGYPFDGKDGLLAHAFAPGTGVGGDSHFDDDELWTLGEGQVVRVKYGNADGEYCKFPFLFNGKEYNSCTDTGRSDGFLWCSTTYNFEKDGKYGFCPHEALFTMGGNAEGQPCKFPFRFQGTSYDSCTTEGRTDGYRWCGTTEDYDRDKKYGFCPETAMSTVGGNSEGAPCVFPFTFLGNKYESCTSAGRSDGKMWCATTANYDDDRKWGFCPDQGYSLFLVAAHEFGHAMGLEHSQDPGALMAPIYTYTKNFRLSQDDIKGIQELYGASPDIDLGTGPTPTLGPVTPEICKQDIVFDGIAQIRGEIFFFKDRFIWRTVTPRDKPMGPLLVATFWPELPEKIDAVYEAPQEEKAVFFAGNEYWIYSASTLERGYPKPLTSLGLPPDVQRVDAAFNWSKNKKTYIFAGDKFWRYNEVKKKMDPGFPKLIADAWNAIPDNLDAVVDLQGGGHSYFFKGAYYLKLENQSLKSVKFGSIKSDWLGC
Procedure: as §1

[3] = biological target: T7, gelatinase B (92 kDa gelatinase) (Homo sapiens, UniProt P14780); test: Gelatinase B digestion of SHEL; conditions: SDS-PAGE and zymogram analysis
T7 construct: purchased Boehringer Mannheim Roche Diagnostics
T7 sequence (P14780 107-707 limits assumed, species assumed): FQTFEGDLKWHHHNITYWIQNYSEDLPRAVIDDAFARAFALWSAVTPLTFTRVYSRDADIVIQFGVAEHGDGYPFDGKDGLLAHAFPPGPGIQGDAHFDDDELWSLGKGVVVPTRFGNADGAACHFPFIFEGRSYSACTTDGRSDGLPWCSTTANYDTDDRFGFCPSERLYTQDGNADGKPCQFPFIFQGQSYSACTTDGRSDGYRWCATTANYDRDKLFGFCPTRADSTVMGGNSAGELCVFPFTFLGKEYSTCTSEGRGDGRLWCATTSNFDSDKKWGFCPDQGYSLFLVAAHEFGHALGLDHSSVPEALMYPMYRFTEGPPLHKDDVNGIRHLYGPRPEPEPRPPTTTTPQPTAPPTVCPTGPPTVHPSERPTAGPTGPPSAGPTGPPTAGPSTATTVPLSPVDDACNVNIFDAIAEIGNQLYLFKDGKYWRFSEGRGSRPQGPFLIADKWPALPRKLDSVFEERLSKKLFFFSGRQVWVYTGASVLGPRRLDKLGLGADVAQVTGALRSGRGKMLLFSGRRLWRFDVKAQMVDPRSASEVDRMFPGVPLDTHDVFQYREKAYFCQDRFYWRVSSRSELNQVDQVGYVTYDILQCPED
Procedure: as §1

protease = test: Protease resistance of SHELδ26A compared with SHEL
Procedure: as §1

[4] = 50 mM sodium phosphate pH 7.8, 37° C.
[5] = coacervated at 37° C., 150 mM NaCl

Row | Molecule | cleavage of fusion protein by thrombin (human thrombin; thrombin cleavage buffer, 25° C., one hour) | degradation by thrombin (human thrombin; 50 mM sodium phosphate pH 7.8, 37° C., one hour) | protection from degradation by thrombin in the coacervated state (human thrombin) | degradation by human plasma kallikrein (human plasma kallikrein) | protection from degradation by kallikrein in the coacervated state (human plasma kallikrein) | degradation by bovine trypsin (bovine trypsin; [4]) | protection from degradation by trypsin in the coacervated state (bovine trypsin; [5]) | degradation by human plasmin (human plasmin; [4]) | protection from degradation by plasmin in the coacervated state (human plasmin) | degradation by human leukocyte elastase [1, 4] | protection from degradation by HLE in the coacervated state [1, 5] | digestion by gelatinase A [2] | digestion by gelatinase B [3] | protease resistance relative to SHEL (protease)
1 | B1 | extensively and in a reproducible manner |  |  |  |  |  |  |  |  |  |  |  |  | 
2 | B2 |  | easily degraded | significantly protected from degradation | specific and reproducible degradation | significantly protected from degradation | complete degradation with prolonged treatment | some inhibition | at high concentration extensive degradation occurred | not by plasmin | extensive degradation if left for extended period | some inhibition | digested | digested | 
3 | B3 |  |  | significant protection from proteolysis | highly specific and limited proteolysis | significant protection from proteolysis |  |  |  | No protection was seen |  |  |  |  | higher protease resistance than SHEL
